Laboratory results taken from the nanobody polyreactivity screen of Harvey et al. (2022).

Test: yeast display, Sf9 membrane polyspecificity reagent, FACS + sequencing; frameworks hold sequencing errors
How it was run: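 Nanobodies came from a synthetic yeast display library in Saccharomyces cerevisiae BJ5465, induced with galactose for 36–48 hours and stained for 1 hour at 4 °C with 10% biotinylated, detergent-solubilized Sf9 membrane reagent. Cells were enriched on streptavidin microbeads and then FACS-sorted, with low and high (top ~1%) gates set on anti-HA fluorescence for expression and streptavidin fluorescence for reagent binding. Each polyreactivity label reflects the gate a clone came from. Genes were amplified by colony PCR, sequenced by MiSeq 2 × 250 and filtered by CDR length.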

Row | Sequence | polyreactivity (PSR sort gate)
1 | QVQLVESGGGLVQAGGSLRLSCAASGRTFKKYAMGWYRQAPGKERELVAAITGSGGSTYYADSVKVRYTISRDNAKNTVYLQMNSLKPEDTAVYYCAAYAYGVGHSQDGGNYWGQCTQVTVSS | low polyreactivity
2 | QVQLVESGGGLVQEGGSLRLSCAASGRIFNGYAMGCYRQAPGKERELVAAINSSGGSTYYADSVKGRFTISRDNAKNTVYLQMNSLKPEDTAVYYCARVSYHYRTYDYWGQGTQVTVSS | high polyreactivity
3 | QVQLQESGGGLVQAGGSLRLSCAASGTITVLYKMAWFRQEPGKEREFVASINYGTSTYYADSVKGRFTVSRDSAKNTVYLQMNSLKPEDTAVYYCAAAYRWQDVYRYWGQGTQVTVSS | low polyreactivity
4 | QVQLVESGGGLVQAGGSLRLSCAASGSIFAYYAMGWYRQAPGKERELVAAISRRGGSTYYADSVKGRFTISRDNAKNTGYLQMNSLQPEDTAVYYCAADIGPRYDSWGLGTQVTVSS | high polyreactivity
5 | QVQLVESGGGLVQAGGSLRLSCAASGRIFYRYAMGWYRQAPGKERELVATITSGGRTKYADSVTGRFTIARDNAKNTVYLQMNSLKPEDTAVYYCNAYVYSGYSIRDYWGQGTQVTVSS | high polyreactivity
6 | QVQLVESGGGLVQAGGSLRLSCAASGYIILGYAMGWYRQAPGKERELVAVINWSGGRTRYADSVKGRFTISRDNAKNTVYLQMNSLKPEDTAVYYCAAERSITYDYWGQGTQVTVSS | high polyreactivity
7 | QVQLVESGGALVQAGGSLRLSCAASGRTFYNYAMGWYRQAPGKEREFVASITTSGGSTYYADSVKGRFTISRDNAKNTVYLQMNSLIPEDTAVYYCARRAYRSWTRNSYEYYYWGQGTQVTVSS | high polyreactivity
8 | QVQLVESGGGLVQAGCSLRLSCAASGITFVGYAMGWYRQAPGKERELVAAISSSGGSTYYADSVKGRFTISRDNAKNTVYLQMNSLKPEDTAVYYCAKRRWWQKSLYDYWGQGTQVTVSS | high polyreactivity
9 | QVQLVESGGGRVQAGGSLRLSCAASGSIFFIYAMGWDRQAPSKEREFVAAISYGGGSTYYADSVKGRFTISRDNAKNTVYLQMNSLKPEDTAVYYCNADVPKSLLLYYPWGYGYWGQGTQVNVSS | low polyreactivity
10 | QVQLVESGGGLVQAGGSLRLSCAASGRIFVRYARGWYSQAPGKERELVAAITSGGRTSYADSVKGRFTISRDNAKNTVYLQMNSLKPEDTAVYYWNVVSRNSIRFDYWGQGTQVTVSS | high polyreactivity
11 | QVQLVESGGGLVQAGGSLRLSCAASGRTSGINAMGWYRQSPGKERELVAAISSGGRTYYADSVKGRFTISRDNAKNTVYLQMNSLKPEDTAVYYCAAVIHWSLYRRMEYWGQGTQVTVSS | high polyreactivity
12 | QVQLVESGGGLVQAGGSLRLSCAASGLTFAWNDMGWYRQAPGKERELVAAISIIGTTYYADSVKGRFTISRDNAKNTVYLQMNSLKREDTAVYYCAKTGFLGLRQYGYWGQGTQVTVSS | high polyreactivity
13 | QVQLVESGGGLVQAGGSLRLSCAASGSTFDQYAMGWYRQAPGKDRELVAAISGSGGRTSYADSVKGRFTISRDNAKNTVYLQMNSLKPEDTAVYYCNKASYRISVPRYDYWGQGTQVTVTS | high polyreactivity
14 | QVQLVESGGGLVQAGGSLRLSCAASGFIFQANAMGWYRQAPGKETELDAAIDDGDTTYADSVKGRFTISRDNAKNTVYLQMNSLKPEDTAGYYCATRRNRSYDYWGQGTQVTVSS | low polyreactivity
15 | QVQLEESGGGLVHAGGSLRLSCAASGSTFGYYTMGWYRQAPRKERELVAAITWSGGSTYYADSVKGRFTISLDNAKNTVYLQMNSLKPEDSAVYYCAADDYWTPFGYWGQGTQVTVSS | low polyreactivity
16 | QFQRVDSGGGLVQAGGSLRLSCAASGSTLAVNAMGWYRQAHGKERELVAAITRSGGRTYYADSLKWRFTISRDNAKNTVYLQMNSLKPEDTAVYYFGAKWYYPFIPKRTTRYGFDYWGHGTQVTVSS | high polyreactivity
17 | QVQLVESGGGLVQAGGSLRLTCAASGRIFGRYAMGWYRQAPAKERELVATITYSGGTTYYADSVKGRFTISRDNAKNTVYLQMNSLKPEDTAVYYCNARSGRQLARYGYWGQGTQVTVSS | high polyreactivity
18 | QVQLVESGGGLVQAGGSLRLSCASSGYTFDYYTMGWYRQAPGKERELVARITASGGSTYYADSVKGRFTISRDNAKNTVYLQMNSLKPEDTSVYYCAKAWYRYSRFDYWGQGTQVTVSS | high polyreactivity
19 | QVQHVESGGGLVQAGGRLRLSCAASGSIFYSNAIGWYRQAPGKEWELVATITWSGGRTYYADSVKGRFTISRDNAKNTVYLQMNSLKPEDTAVYYCAAVSIYWGQGTQVTVSS | low polyreactivity
20 | QGQLVESGGGLVQAGGSLRLSCAASGSIFRGYAMGWYRQAPGKERELVAAISWSGGSTYYADSVKGRFTISRDNAKNTVYLQMNSLKPEDTAVYYCAADRDVFGYWYYYWGQGTQVTVSS | high polyreactivity
21 | QVQLVESGGGLVQAGGSLRLSCAASGYTYSDNAMGWYRPAPGKERELVAAITSGVSTYYADSVKGRFTISRDNAKNTVYLQMNSPKPEDTAVYYCAKDVAVYADLYQGAPYGYWGQGTQVTVST | low polyreactivity
22 | QVQLVESGGGLVQAGGSLRLICAASGIIFGYYAMGWYRQAPGKERELVAAITSGASTDYADSVKGRFTISRDNAKNTFYLQMNSLKPEDTAVFFCNADTSASTYTFPFDYCGQGTQVTVSS | low polyreactivity

Row | Sequence | polyreactivity (PSR sort gate)
23 | QVQLVESGGGLVQAGGSLRLSCAASGSTLKYYTMGWYRQAPGKERELVAAISWSGGRTYYADSVKGRFTISRDNAKNTVYLQMNCLKPEDTAVYYCAKYPGYRSSGRISYEYDYWGQGTQVTVSS | high polyreactivity
24 | QVQLVESGGGLVQAGGSLRLSCAASGSISVHYAMGWYRQAPGKERELVAAISRRGGSTYYADSVKGRFTISRDNAMNTVYLQMNSLKPEDTAVYYCNASYYSVIQQTWYDYWGQVTQVTVSS | high polyreactivity
25 | QVQLVESGGGLVQAGGSHRLSCAASGITFRRNTMGWYRQAPGKERELVATISWRGGNTFYADSVKGRFTFSRDNAKNTVYLQMNSLKPEDTAVYYCNARGYGTLIVRRERMDYWGQGTQVTVSS | high polyreactivity
26 | QVQLVESGGGLVQAGGSLRLSCAASGSIFDLNAMGWYRQAPGKERELVAAISSGGGTYYADSVKGRFTISRDNAKNTVYFQMNSLKPEDTAVYYCNRVTRWTYNYWGQGTQVTVSS | high polyreactivity
27 | QVQLVESGGGLVQAGGSLRLSSAASGSTFEIYAMGWYRQAPGKERDLVAGITTSDGRTDYADSVKGRFTISRDNAKNTVYLLMNILKPEDTAVYYCAKVTLGYTWYQYDYWGQGTQVTVSS | low polyreactivity
28 | QVQLVESGGGLVQAGGSLRLSCAASGRIFRANAMGWYRQAPGKERELVAGISYRGGSTYYADSVKGRFTISRDNAKNTVYLQMNSLKPEDTAVYYCAVRSSPELRYHYEYWGQGTQVTVSS | low polyreactivity
29 | QVQLVESGRGLVQAGGSLRLSCAASGIIFYENTMGWYRLAPGKERELVASISWSGGRTYNADSVKGRFTISRDNAKNTVDLQMNSLKPEDTAVYYCAGRPYYLYIYNFWGQGTQVTVSS | high polyreactivity
30 | QVQLVESGGRLVQAGGSLRLTCAASGNIFANNAMGWYRQAPGTERELVAAISQSGGNTYYEDSVKGRFTISRDNAKNTVYLQMNSLKPEDTAVYYCNAKTYGYNYDSWGQGTQVTVSS | low polyreactivity
31 | QVQLLESGVGLVQAGGSLRLSCAASGSILYINALGWSRPAPGKARELVAAITYSGGSTYYADSVKGRFTISRDNAKKPVYLQMNSLKPEDTAVYYCAADAVVAGRYDGHAYWGQGTQVTVSS | low polyreactivity
32 | QVQLVESGGGLVQAGGSLRLSCAASGSIFDYYAMGWYRQAPGKERELVADITSGGSTNYADSVKGRFTISRDNAKNTVYLQMNSLKPEDTAVYYCNALASRYPAYYYWGQGTQVTVSS | low polyreactivity
33 | QVQLVESGGGLVQAGGSLRLSCAASGSIFPYYVMGWYRQAPGKERELVAAISTSDGSTYADSVKGRFTISRDNAKNTVYLQMNSLKPEDTAVYYCAVANVYYEGYDYWGQGTQVTVSS | low polyreactivity
34 | QVQLVESGGGLVQAGGSLRLSCAASGFTFHTYAMGWYRQAPGKERELVAAIDSSGGITYYADSVKGRFTISRDHAKNTVYLQMNSLKPEDTAVYYCAAVFLLFGFEWSYDYWGQGTQVTVSS | low polyreactivity
35 | QVQLVESGGGLVQAGGSLRLSCAASGRIFNSYAMGWYRQAPGKERELVAAINWTDVSTYYADSVKGRFTISRDNAKNTVYLQMNSLKPEDTAVYYFAAVRWGSYTLSDDYWGQGTQVTVSS | low polyreactivity
36 | QVQLVESGGGLVQAGGSLRLSCAASGRTFRYYTMGWYRQAPGKERELVAAITRNGGRTYYADSVKGRFTISRDNAKNTVYLQMNSLKPEDTAVYYCAAGTYDGGYHYDYWGQGTQVTVSS | high polyreactivity
37 | QVQLVESGGGLVQAGGSLRLSCAASGSTFYPNARGWYRQAPGKERELVAAISWSGGRTYYADSEKGRFTISRDNAKNTVYLQMNSLKPEDTAVYYCYRYHRTSGRAKYDYWGQGTQVTVSS | high polyreactivity
38 | QVQLVESGGGLVQAGGSLRLSCAASGSTFVVNAMGWYRQAPGKERELVAAITLSTGSTYYADSVKGRFTISRDNAKNTVYLQMNSLKPEDTAVYYCNTEIYVDIISDYGYWGQGTEVTVSS | low polyreactivity
39 | QVQLVESGGGLVQAGGSLLLICAASGITFWSYAMGWYRQAPGKERELVAAISSTGSTNYADSVKGRFTISRDNAKNTVYLQMNSLKPEDTAVYYCAAEYTFWWSRTGKYYYWGQGTQVTVSS | high polyreactivity
40 | QVQLVESGGGLVQAGGSLRLSCAASGITFTVYTMGWYRQAPGKERELVAAITTSGTTTYYADSVKGRFTISRDNAKNTVYLQINSLKPEDTAVYYCAARQVWGEGVKSYYWGQGTQVTVSS | high polyreactivity
41 | QVQLVESGGGLVQAGGSLRLSCAASGITFEYYAMGWYRPAPGKERELVAAIDTGGSTNYADSVKGRFTISRDNAKNTVYLQMNSLKPEDTAVYSCAADWSWWDGEDDHFEYDYWGQGTQVTVSS | low polyreactivity
42 | QVQLVESGGGLVQAGGSLRLSCAASGSIFYYYAMGWYRQAPGKERELVAAITSGGSTYYADSVKGRFTISRDNAKNTVYYQMNSLIPEDTAVYYCAAVFYAAYLRYVWYSYDYWGQGTQVTVSS | low polyreactivity
43 | QVQLVESGGGLVQAGGSLRLSCAASGRIFYPNAMGWYRQAPGKERELVASISRGGPTSYADSVKGRFTISRDNAKNTVYLQINSLKPEDTAVYDCAADVAWYRYRSYYWGQGTQVTVSS | high polyreactivity
